Usually EC50 stands for the concentration needed to bring the measured effect to its halfway point. Read a high EC50 as a less potent agent.

Binding result and EC50 data for three molecules are collected here from patent US20200392230A1 (QLB BIOTHERAPEUTICS, published 2020).

The target in one test is T1, CD20 (UniProt P11836 1-297, limits assumed).
T1 construct: whole, on cells; also called CD20 on Raji cells; CD20 on Daudi cells
T1 sequence (looked up): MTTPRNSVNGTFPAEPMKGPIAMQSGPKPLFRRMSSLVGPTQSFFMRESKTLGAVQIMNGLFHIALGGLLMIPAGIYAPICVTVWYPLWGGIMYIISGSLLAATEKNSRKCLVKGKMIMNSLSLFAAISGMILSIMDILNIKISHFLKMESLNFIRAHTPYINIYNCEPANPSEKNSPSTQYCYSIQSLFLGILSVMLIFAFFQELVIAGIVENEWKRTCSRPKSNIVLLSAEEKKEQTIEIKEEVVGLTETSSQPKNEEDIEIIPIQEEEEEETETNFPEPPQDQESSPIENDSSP
As to the kind of experiment: FACS, cell surface binding on Raji cells. The procedure: (§1) After washing in phosphate buffered saline (PBS), fluorescence conjugated secondary antibodies were added to the cell mixture. The stained cells were analyzed in an LSR II FACS machine (BD Biosciences). Mean fluorescence intensity (MFI) was used to indicate the binding strength of the tested antibodies.
For orientation: A flow cytometer gives signals particle by particle.

The target of a further test is T2, CD3 (UniProt P07766 23-207).
T2 construct: whole, on cells; In the functional assays CD3 stood on engineered effector cells or on T cells of human PBMCs; also called CD3 on Jurkat cells; TCR/CD3 complex
T2 sequence (P07766 23-207): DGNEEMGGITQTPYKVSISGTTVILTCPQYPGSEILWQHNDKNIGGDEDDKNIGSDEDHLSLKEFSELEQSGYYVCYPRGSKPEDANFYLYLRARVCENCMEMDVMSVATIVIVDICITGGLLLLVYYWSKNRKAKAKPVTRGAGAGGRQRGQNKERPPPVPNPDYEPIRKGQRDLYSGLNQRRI
As to the kind of experiment: FACS, cell surface binding on Jurkat cells (CD3+), fluorescent secondary antibody, MFI. The procedure:
as §1

B1: QLB1005-0001 (bispecific antibody)
chain 1: QAVVTQEPSLTVSPGGTVTLTCRSSTGAVTTSNYANWVQQKPGQAPRGLIGGTNKRAPGVPARFSGSLLGDKAALTLSGAQPEDEAEYYCALWYSNLWVFGTGTKVTVLGGGGSGGGGSGGGGSEVQLVESGGGLVQPGGSLKLSCAASGFTFNTYAMNWVRQASGKGLEWVARIRSKYNNYATYYADSVKDRFTISRDDSKNTLYLQMNSLKTEDTAVYYCVRHGNFGNSYVSWFAYWGQGTLVTVSSGGGGSASTKGPSVFPLAPSSKSTSGGTAALGCLVKDYFPEPVTVSWNSGALTSGVHTFPAVLQSSGLYELVSVVTVPSSSLGTQTYICNVNHKPSNTKVDKKVEPKSC
chain 2: QIVLTQSPATLSLSPGERATLSCRASSSVSYIHWFQQKPGQAPRPWIYATSNLASGVPARFSGSGSGTDYTLTISSLEPEDFAVYYCQQWTSNPPTFGQGTKVEIKGGGGSGGGGSGGGGSQVQLVQSGAEVKKPGASVKVSCKASGYTFTSYNMHWVRQAPGQGLEWIGAIYPGNGDTSYNQKFKGKATLTADKSTSTAYMELSSLRSEDTAVYYCARSTYYGGDWYFNVWGQGTLVTVSSGGGGSRTVAAPSVFIFPPSDEQLKSGTASVVCLLNNFYPREAKVQWKVDNALQSGNSQESVTEQDSKDSTYSLLSSLTLSKADYEKHKVYACEVTHQGLSSPVTKSFNRGEC
notes: NCI/NIH CH1-CK stabilized Fab format; the CH1 and CK domains form a heterodimer via a disulphide bond; also called anti-CD3×CD20 BsAb; Fab format (VL-VH-CH1/VL-VH-CK)
Consider B1, for which the binding result in the test with CD20 is “binds”.

B2: QLB1005-0002 (bispecific antibody, human IgG1)
chain 1: EVQLVESGGGLVQPGGSLKLSCAASGFTFNTYAMNWVRQASGKGLEWVARIRSKYNNYATYYADSVKDRFTISRDDSKNTLYLQMNSLKTEDTAVYYCVRHGNFGNSYVSWFAYWGQGTLVTVSSGGGGSGGGGSGGGGSQAVVTQEPSLTVSPGGTVTLTCRSSTGAVTTSNYANWVQQKPGQAPRGLIGGTNKRAPGVPARFSGSLLGDKAALTLSGAQPEDEAEYYCALWYSNLWVFGTGTKVTVLGGGGSGGGGSGGGGSPKSCDKTHTCPPCPAPEAAGGPSVFLFPPKPKDTLMISRTPEVTCVVVDVSHEDPEVKFNWYVDGVEVHNAKTKPREEQYNSTYRVVSVLTVLHQDWLNGKEYKCKVSNKALGAPIEKTISKAKGQPREPQVCTLPPSRDELTKNQVSLSCAVKGFYPSDIAVEWESNGQPENNYKTTPPVLDSDGSFFLVSKLTVDKSRWQQGNVFSCSVMHEALHNHYTQKSLSLSPGK
chain 2: not shown
notes: scFv-Fc format with Knob-in-Hole and L234A, L235A (LALA) mutations in a human IgG1 Fc; The text also prints the name as QLB1005-02000; also called QLB1005-02000; QLB-1005-02000
On to B2, for which the EC50 with CD3 is 98.2 nM.

B3: QLB1005-0003 (bispecific antibody)
chain 1: EVQLVESGGGLVQPGGSLKLSCAASGFTFNTYAMNWVRQASGKGLEWVARIRSKYNNYATYYADSVKDRFTISRDDSKNTLYLQMNSLKTEDTAVYYCVRHGNFGNSYVSWFAYWGQGTLVTVSSGGGGSGGGGSGGGGSQAVVTQEPSLTVSPGGTVTLTCRSSTGAVTTSNYANWVQQKPGQAPRGLIGGTNKRAPGVPARFSGSLLGDKAALTLSGAQPEDEAEYYCALWYSNLWVFGTGTKVTVLGGGGSASTKGPSVFPLAPSSKSTSGGTAALGCLVKDYFPEPVTVSWNSGALTSGVHTFPAVLQSSGLYELVSVVTVPSSSLGTQTYICNVNHKPSNTKVDKKVEPKSC
chain 2: QVQLVQSGAEVKKPGASVKVSCKASGYTFTSYNMHWVRQAPGQGLEWIGAIYPGNGDTSYNQKFKGKATLTADKSTSTAYMELSSLRSEDTAVYYCARSTYYGGDWYFNVWGQGTLVTVSSGGGGSGGGGSGGGGSQIVLTQSPATLSLSPGERATLSCRASSSVSYIHWFQQKPGQAPRPWIYATSNLASGVPARFSGSGSGTDYTLTISSLEPEDFAVYYCQQWTSNPPTFGQGTKVEIKGGGGSRTVAAPSVFIFPPSDEQLKSGTASVVCLLNNFYPREAKVQWKVDNALQSGNSQESVTEQDSKDSTYSLLSSLTLSKADYEKHKVYACEVTHQGLSSPVTKSFNRGEC
notes: NCI/NIH CH1-CK stabilized Fab format; the CH1 and CK domains form a heterodimer via a disulphide bond; also called anti-CD3×CD20 BsAb; Fab format (VH-VL-CH1/VH-VL-CK)
Take B3: the binding result with CD20 was “binds”.
